From patent US20230146939A1, “TREATMENT FOR HUMAN CORONAVIRUS INFECTION” (THE ADMINISTRATORS OF THE TULANE EDUCATIONAL FUND, priority 2020, published 2023)

Molecular target: α5β1 integrin, P08648
Test: competition ELISA, α5β1-coated plate, inhibition of trimeric spike binding

Sequence of α5β1 integrin, P08648 (P08648 42-995, chain 1 of 2): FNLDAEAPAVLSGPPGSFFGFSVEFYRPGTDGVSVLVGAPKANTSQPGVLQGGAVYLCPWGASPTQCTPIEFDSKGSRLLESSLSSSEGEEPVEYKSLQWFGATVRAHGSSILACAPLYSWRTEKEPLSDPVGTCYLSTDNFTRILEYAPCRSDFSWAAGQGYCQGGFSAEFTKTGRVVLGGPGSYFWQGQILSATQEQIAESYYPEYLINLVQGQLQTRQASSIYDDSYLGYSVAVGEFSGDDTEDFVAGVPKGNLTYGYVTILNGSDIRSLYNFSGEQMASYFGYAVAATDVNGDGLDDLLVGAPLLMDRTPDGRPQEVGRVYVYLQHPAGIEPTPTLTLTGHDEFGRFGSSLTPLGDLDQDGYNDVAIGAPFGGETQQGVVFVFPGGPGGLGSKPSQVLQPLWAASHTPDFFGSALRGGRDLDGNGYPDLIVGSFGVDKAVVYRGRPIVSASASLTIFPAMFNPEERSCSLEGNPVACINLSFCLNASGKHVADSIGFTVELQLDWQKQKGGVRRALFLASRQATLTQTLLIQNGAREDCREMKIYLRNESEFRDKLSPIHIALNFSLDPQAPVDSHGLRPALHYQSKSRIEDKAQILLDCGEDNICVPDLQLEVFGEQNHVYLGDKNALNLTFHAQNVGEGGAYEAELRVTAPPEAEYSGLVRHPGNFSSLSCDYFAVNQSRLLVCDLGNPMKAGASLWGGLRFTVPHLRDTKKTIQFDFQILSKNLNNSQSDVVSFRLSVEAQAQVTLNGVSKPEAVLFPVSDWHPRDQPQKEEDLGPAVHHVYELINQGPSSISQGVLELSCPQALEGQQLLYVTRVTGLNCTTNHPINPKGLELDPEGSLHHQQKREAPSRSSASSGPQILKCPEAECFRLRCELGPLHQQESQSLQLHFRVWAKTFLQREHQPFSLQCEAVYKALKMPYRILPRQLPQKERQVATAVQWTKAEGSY
Sequence of α5β1 integrin, P08648 (P05556 21-728, chain 2 of 2, further chain): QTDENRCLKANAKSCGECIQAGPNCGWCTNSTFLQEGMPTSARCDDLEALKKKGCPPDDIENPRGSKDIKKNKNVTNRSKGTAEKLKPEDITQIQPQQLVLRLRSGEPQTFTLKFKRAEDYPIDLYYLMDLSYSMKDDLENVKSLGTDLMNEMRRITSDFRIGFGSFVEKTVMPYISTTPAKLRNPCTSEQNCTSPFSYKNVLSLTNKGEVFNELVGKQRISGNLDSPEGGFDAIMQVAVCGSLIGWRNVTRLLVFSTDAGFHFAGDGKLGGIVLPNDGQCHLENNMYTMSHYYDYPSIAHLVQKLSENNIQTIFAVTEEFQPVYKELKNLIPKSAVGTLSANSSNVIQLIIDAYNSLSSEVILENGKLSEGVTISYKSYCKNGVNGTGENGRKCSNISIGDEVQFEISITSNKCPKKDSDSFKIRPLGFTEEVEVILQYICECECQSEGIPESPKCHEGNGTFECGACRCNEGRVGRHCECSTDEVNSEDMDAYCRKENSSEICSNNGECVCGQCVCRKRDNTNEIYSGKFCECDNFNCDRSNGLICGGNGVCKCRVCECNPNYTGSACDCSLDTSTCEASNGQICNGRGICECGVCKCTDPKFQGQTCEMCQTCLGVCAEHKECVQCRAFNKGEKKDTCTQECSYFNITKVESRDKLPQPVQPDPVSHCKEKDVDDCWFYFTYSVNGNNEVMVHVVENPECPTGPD

In the case of PHSCN (modifications not checked) [ATN-161], the most effective dose tested is reported as 100 nM.
